{"source": "patent US20230212268A1", "about": "(UNM RAINFOREST INNOVATIONS, published 2023)", "binders": {"B1": {"name": "EbovGPscFv4-2 (scFv)", "scFv": "MAWSHPQFEKTGSGGAELVKSGASVKLSCTASGFNIKDDYMHWVKQRPEQGLEWIGWIDPENGDTEYASKFQGKATITADTSSNTAYLQLSSLTSEDTAVYYCTTYYYGSAWFAYWGQGTLVTVSAGGGGSGGGGSGGGGSGGGGSASLSVSVGETVTITCRASGNIHNYLAWYQQKQGKSPQLLVYNAKTLADGVPSRFSGSGSGTQYSLKINNLQPEDFGSYYCQHFWSTPYTFGGGTKLEIKRADAAPTVSIFPPSSEQLTSGGASVVCFLNNFTHCQELQQDECS"}}, "key": {"[1]": {"molecular_target": "recombinant BDBV glycoprotein (BDBV (Bundibugyo ebolavirus))", "assay": "ELISA dose response, GP coated"}, "[2]": {"molecular_target": "recombinant BDBV glycoprotein (BDBV (Bundibugyo ebolavirus))", "assay": "ELISA dose response, GP coated", "remark": "listed apart in the source"}, "[3]": {"molecular_target": "recombinant BDBV glycoprotein (BDBV (Bundibugyo ebolavirus))", "assay": "maximal binding from ELISA dose-response fit"}, "[4]": {"molecular_target": "T1, recombinant TAFV glycoprotein (TAFV (Tai Forest virus), UniProt Q66810 33-650)", "T1 sequence": "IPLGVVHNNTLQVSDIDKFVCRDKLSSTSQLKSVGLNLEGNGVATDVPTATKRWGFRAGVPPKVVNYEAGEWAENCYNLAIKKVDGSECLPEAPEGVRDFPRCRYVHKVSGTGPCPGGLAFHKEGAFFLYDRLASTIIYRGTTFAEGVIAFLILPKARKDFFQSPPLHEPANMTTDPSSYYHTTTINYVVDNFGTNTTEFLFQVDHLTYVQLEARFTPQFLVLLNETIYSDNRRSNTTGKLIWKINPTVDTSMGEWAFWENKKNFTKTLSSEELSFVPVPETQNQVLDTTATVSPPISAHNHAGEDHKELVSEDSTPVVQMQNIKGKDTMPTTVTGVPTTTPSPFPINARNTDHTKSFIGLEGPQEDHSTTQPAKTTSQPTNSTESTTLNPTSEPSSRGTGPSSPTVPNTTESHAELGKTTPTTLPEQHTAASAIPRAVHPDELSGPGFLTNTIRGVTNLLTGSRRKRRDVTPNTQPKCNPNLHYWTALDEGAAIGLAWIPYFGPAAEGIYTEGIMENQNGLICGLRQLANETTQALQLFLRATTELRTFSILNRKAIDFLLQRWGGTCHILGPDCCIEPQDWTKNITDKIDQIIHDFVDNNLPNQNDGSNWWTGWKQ", "assay": "ELISA dose-response fit, reference scFv22-1"}}, "note": "Read-outs that look alike come from different tables or passages of the source.", "data": [{"binder": "B1", "values": [{"measurement": "EC50", "setting": "[1]", "value": 8.19, "unit": "µg/mL"}, {"measurement": "EC50", "setting": "[2]", "value": "< 9", "unit": "µg/mL"}, {"measurement": "Bmax signal (relative absorbance units)", "setting": "[3]", "value": 220000}, {"measurement": "fold affinity against scFv22-1", "setting": "[4]", "value": "~2", "unit": "fold"}]}]}
